{"source": "patent US20260242419A1", "about": "“A CYCLIC PEPTIDE FOR TRAPPING INTERLEUKIN-1 BETA” (Merck Sharp & Dohme LLC, priority 2023, published 2026)", "binders": {"B1": {"name": "SEQ ID NO: 95 (peptide)", "peptide": "cyclo([TyrEtNAc][4Pal][Phe(4-COOH)]G[Pro(cis-4-F)][Trp(βS-Me,4-F)][Aib]EW[Aib][4Pal]Q[Dab]G[dPro(4R-Bzl(4-F))])", "SMILES": "CC(=O)NCCOc1ccc(C[C@@H]2NC(=O)[C@H]3C[C@@H](Cc4ccc(F)cc4)CN3C(=O)CNC(=O)[C@H](CCN)NC(=O)[C@H](CCC(N)=O)NC(=O)[C@H](Cc3ccncc3)NC(=O)C(C)(C)NC(=O)[C@H](Cc3c[nH]c4ccccc34)NC(=O)[C@H](CCC(=O)O)NC(=O)C(C)(C)NC(=O)[C@H]([C@@H](C)c3c[nH]c4cccc(F)c34)NC(=O)[C@@H]3C[C@H](F)CN3C(=O)CNC(=O)[C@H](Cc3ccc(C(=O)O)cc3)NC(=O)[C@H](Cc3ccncc3)NC2=O)cc1"}, "B2": {"name": "SEQ ID NO: 93 (peptide)", "peptide": "cyclo([Bip(4'-COOH)][Ala(1-bicyclo(1.1.1)pentyl)][Phe(4-COOH)]G[Pro(cis-4-F)][Trp(βS-Me,4-F)][Aib]EW[Aib][Dap]Q[Dab]G[dPro(4R-(4-pyridylmethyl))])", "SMILES": "C[C@@H](c1c[nH]c2cccc(F)c12)[C@@H]1NC(=O)[C@@H]2C[C@H](F)CN2C(=O)CNC(=O)[C@H](Cc2ccc(C(=O)O)cc2)NC(=O)[C@H](CC23CC(C2)C3)NC(=O)[C@H](Cc2ccc(-c3ccc(C(=O)O)cc3)cc2)NC(=O)[C@H]2C[C@@H](Cc3ccncc3)CN2C(=O)CNC(=O)[C@H](CCN)NC(=O)[C@H](CCC(N)=O)NC(=O)[C@H](CN)NC(=O)C(C)(C)NC(=O)[C@H](Cc2c[nH]c3ccccc23)NC(=O)[C@H](CCC(=O)O)NC(=O)C(C)(C)NC1=O"}, "B3": {"name": "SEQ ID NO: 9 (peptide)", "peptide": "cyclo([Bip(4'-COOH)][4Pal][Phe(4-COOH)]G[Pro(cis-4-F)][Trp(βS-Me,4-F)][Aib]EW[Aib][Ala(pyrimidin-5-yl)]QKG[dPro(4R-Bzl(4-F))])", "SMILES": "C[C@@H](c1c[nH]c2cccc(F)c12)[C@@H]1NC(=O)[C@@H]2C[C@H](F)CN2C(=O)CNC(=O)[C@H](Cc2ccc(C(=O)O)cc2)NC(=O)[C@H](Cc2ccncc2)NC(=O)[C@H](Cc2ccc(-c3ccc(C(=O)O)cc3)cc2)NC(=O)[C@H]2C[C@@H](Cc3ccc(F)cc3)CN2C(=O)CNC(=O)[C@H](CCCCN)NC(=O)[C@H](CCC(N)=O)NC(=O)[C@H](Cc2cncnc2)NC(=O)C(C)(C)NC(=O)[C@H](Cc2c[nH]c3ccccc23)NC(=O)[C@H](CCC(=O)O)NC(=O)C(C)(C)NC1=O"}, "B4": {"name": "SEQ ID NO: 94 (peptide)", "peptide": "cyclo([Phe(4-(5-CO2H-2-pyrimidyl))][Ala(1-bicyclo(1.1.1)pentyl)][Phe(4-COOH)]G[Pro(cis-4-F)][Trp(βS-Me,4-F)][Aib]AW[Aib]SQ[Dab]G[dPro(4R-Bzl(4-F))])", "SMILES": "C[C@@H]1NC(=O)C(C)(C)NC(=O)[C@H]([C@@H](C)c2c[nH]c3cccc(F)c23)NC(=O)[C@@H]2C[C@H](F)CN2C(=O)CNC(=O)[C@H](Cc2ccc(C(=O)O)cc2)NC(=O)[C@H](CC23CC(C2)C3)NC(=O)[C@H](Cc2ccc(-c3ncc(C(=O)O)cn3)cc2)NC(=O)[C@H]2C[C@@H](Cc3ccc(F)cc3)CN2C(=O)CNC(=O)[C@H](CCN)NC(=O)[C@H](CCC(N)=O)NC(=O)[C@H](CO)NC(=O)C(C)(C)NC(=O)[C@H](Cc2c[nH]c3ccccc23)NC1=O"}, "B5": {"name": "SEQ ID NO: 91 (peptide)", "peptide": "cyclo([PyrimAla4Ph4CO2H][4Pal][Phe(4-COOH)]G[Pro(cis-4-F)][Trp(βS-Me,4-F)][Aib]EW[Aib][Ala(pyrimidin-5-yl)]Q[Dab]G[dPro(4R-Bzl(4-F))])", "SMILES": "C[C@@H](c1c[nH]c2cccc(F)c12)[C@@H]1NC(=O)[C@@H]2C[C@H](F)CN2C(=O)CNC(=O)[C@H](Cc2ccc(C(=O)O)cc2)NC(=O)[C@H](Cc2ccncc2)NC(=O)[C@H](Cc2cnc(-c3ccc(C(=O)O)cc3)nc2)NC(=O)[C@H]2C[C@@H](Cc3ccc(F)cc3)CN2C(=O)CNC(=O)[C@H](CCN)NC(=O)[C@H](CCC(N)=O)NC(=O)[C@H](Cc2cncnc2)NC(=O)C(C)(C)NC(=O)[C@H](Cc2c[nH]c3ccccc23)NC(=O)[C@H](CCC(=O)O)NC(=O)C(C)(C)NC1=O"}, "B6": {"name": "SEQ ID NO: 84 (peptide)", "peptide": "cyclo([Phe(4-(5-CO2H-2-pyrimidyl))][Ala(1-bicyclo(1.1.1)pentyl)][Phe(4-COOH)]G[Pro(cis-4-F)][Trp(βS-Me,4-F)][Aib]SW[Aib][4Pal]Q[Dab]G[dPro(4R-Bzl(4-F))])", "SMILES": "C[C@@H](c1c[nH]c2cccc(F)c12)[C@@H]1NC(=O)[C@@H]2C[C@H](F)CN2C(=O)CNC(=O)[C@H](Cc2ccc(C(=O)O)cc2)NC(=O)[C@H](CC23CC(C2)C3)NC(=O)[C@H](Cc2ccc(-c3ncc(C(=O)O)cn3)cc2)NC(=O)[C@H]2C[C@@H](Cc3ccc(F)cc3)CN2C(=O)CNC(=O)[C@H](CCN)NC(=O)[C@H](CCC(N)=O)NC(=O)[C@H](Cc2ccncc2)NC(=O)C(C)(C)NC(=O)[C@H](Cc2c[nH]c3ccccc23)NC(=O)[C@H](CO)NC(=O)C(C)(C)NC1=O"}, "B7": {"name": "SEQ ID NO: 87 (peptide)", "peptide": "cyclo([Phe(4-(5-CO2H-2-pyrimidyl))][Ala(1-bicyclo(1.1.1)pentyl)][Phe(4-COOH)]G[Pro(cis-4-F)][Trp(βS-Me,4-F)][Aib]AW[Aib][Ala(pyrimidin-5-yl)]Q[Dab]G[dPro(4R-(4-pyridylmethyl))])", "SMILES": "C[C@@H]1NC(=O)C(C)(C)NC(=O)[C@H]([C@@H](C)c2c[nH]c3cccc(F)c23)NC(=O)[C@@H]2C[C@H](F)CN2C(=O)CNC(=O)[C@H](Cc2ccc(C(=O)O)cc2)NC(=O)[C@H](CC23CC(C2)C3)NC(=O)[C@H](Cc2ccc(-c3ncc(C(=O)O)cn3)cc2)NC(=O)[C@H]2C[C@@H](Cc3ccncc3)CN2C(=O)CNC(=O)[C@H](CCN)NC(=O)[C@H](CCC(N)=O)NC(=O)[C@H](Cc2cncnc2)NC(=O)C(C)(C)NC(=O)[C@H](Cc2c[nH]c3ccccc23)NC1=O"}, "B8": {"name": "SEQ ID NO: 85 (peptide)", "peptide": "cyclo([Phe(4-(5-CO2H-2-pyrimidyl))][4Pal][Phe(4-COOH)]G[Pro(cis-4-F)][Trp(βS-Me,4-F)][Aib]AW[Aib][4Pal]Q[Dab]G[dPro(4R-(4-pyridylmethyl))])", "SMILES": "C[C@@H]1NC(=O)C(C)(C)NC(=O)[C@H]([C@@H](C)c2c[nH]c3cccc(F)c23)NC(=O)[C@@H]2C[C@H](F)CN2C(=O)CNC(=O)[C@H](Cc2ccc(C(=O)O)cc2)NC(=O)[C@H](Cc2ccncc2)NC(=O)[C@H](Cc2ccc(-c3ncc(C(=O)O)cn3)cc2)NC(=O)[C@H]2C[C@@H](Cc3ccncc3)CN2C(=O)CNC(=O)[C@H](CCN)NC(=O)[C@H](CCC(N)=O)NC(=O)[C@H](Cc2ccncc2)NC(=O)C(C)(C)NC(=O)[C@H](Cc2c[nH]c3ccccc23)NC1=O"}, "B9": {"name": "SEQ ID NO: 92 (peptide)", "peptide": "cyclo([PyrimAla4Ph4CO2H][Ala(1-bicyclo(1.1.1)pentyl)][Phe(4-COOH)]G[Pro(cis-4-F)][Trp(βS-Me,4-F)][Aib]EW[Aib][Ala(pyrimidin-5-yl)]Q[Dab]G[dPro(4R-Bzl(4-F))])", "SMILES": "C[C@@H](c1c[nH]c2cccc(F)c12)[C@@H]1NC(=O)[C@@H]2C[C@H](F)CN2C(=O)CNC(=O)[C@H](Cc2ccc(C(=O)O)cc2)NC(=O)[C@H](CC23CC(C2)C3)NC(=O)[C@H](Cc2cnc(-c3ccc(C(=O)O)cc3)nc2)NC(=O)[C@H]2C[C@@H](Cc3ccc(F)cc3)CN2C(=O)CNC(=O)[C@H](CCN)NC(=O)[C@H](CCC(N)=O)NC(=O)[C@H](Cc2cncnc2)NC(=O)C(C)(C)NC(=O)[C@H](Cc2c[nH]c3ccccc23)NC(=O)[C@H](CCC(=O)O)NC(=O)C(C)(C)NC1=O"}, "B10": {"name": "SEQ ID NO: 89 (peptide)", "peptide": "cyclo([Phe(4-(5-CO2H-2-pyrimidyl))][Ala(1-bicyclo(1.1.1)pentyl)][Phe(4-COOH)]G[Pro(cis-4-F)][Trp(βS-Me,4-F)][Aib]SW[Aib][4Pal]Q[Dab]G[dPro(4R-(4-pyridylmethyl))])", "SMILES": "C[C@@H](c1c[nH]c2cccc(F)c12)[C@@H]1NC(=O)[C@@H]2C[C@H](F)CN2C(=O)CNC(=O)[C@H](Cc2ccc(C(=O)O)cc2)NC(=O)[C@H](CC23CC(C2)C3)NC(=O)[C@H](Cc2ccc(-c3ncc(C(=O)O)cn3)cc2)NC(=O)[C@H]2C[C@@H](Cc3ccncc3)CN2C(=O)CNC(=O)[C@H](CCN)NC(=O)[C@H](CCC(N)=O)NC(=O)[C@H](Cc2ccncc2)NC(=O)C(C)(C)NC(=O)[C@H](Cc2c[nH]c3ccccc23)NC(=O)[C@H](CO)NC(=O)C(C)(C)NC1=O"}, "B11": {"name": "SEQ ID NO: 88 (peptide)", "peptide": "cyclo([Phe(4-(5-CO2H-2-pyrimidyl))][Ala(1-bicyclo(1.1.1)pentyl)][Phe(4-COOH)]G[Pro(cis-4-F)][Trp(βS-Me,4-F)][Aib]AW[Aib][4Pal]Q[Dab]G[dPro(4R-(4-pyridylmethyl))])", "SMILES": "C[C@@H]1NC(=O)C(C)(C)NC(=O)[C@H]([C@@H](C)c2c[nH]c3cccc(F)c23)NC(=O)[C@@H]2C[C@H](F)CN2C(=O)CNC(=O)[C@H](Cc2ccc(C(=O)O)cc2)NC(=O)[C@H](CC23CC(C2)C3)NC(=O)[C@H](Cc2ccc(-c3ncc(C(=O)O)cn3)cc2)NC(=O)[C@H]2C[C@@H](Cc3ccncc3)CN2C(=O)CNC(=O)[C@H](CCN)NC(=O)[C@H](CCC(N)=O)NC(=O)[C@H](Cc2ccncc2)NC(=O)C(C)(C)NC(=O)[C@H](Cc2c[nH]c3ccccc23)NC1=O"}}, "note": "Starred links: 1 amine or outer side, 2 acyl side, 3 side chain; linkers in the order of their positions; H or OH if unused. Non-standard residues stand in square brackets, D forms with d. PyrimAla4Ph4CO2H = 4-[5-[(2S)-2-amino-2-carboxy-ethyl]pyrimidin-2-yl]benzoic acid, O=C([C@H](Cc1cnc(-c2ccc(C(=O)[*:3])cc2)nc1)N[*:1])[*:2]; TyrEtNAc = (2S)-3-[4-(2-acetamidoethoxy)phenyl]-2-amino-propanoic acid, CC(=O)NCCOc1ccc(C[C@H](N[*:1])C(=O)[*:2])cc1; Phe(4-(5-CO2H-2-pyrimidyl)) = N[C@@H](Cc1ccc(-c2ncc(C(=O)O)cn2)cc1)C(=O)O; Phe(4-(4-Ac-piperazinyl)) = CC(=O)N1CCN(c2ccc(C[C@H](N)C(=O)O)cc2)CC1; dPro(4R-(4-pyridylmethyl)) = O=C(O)[C@H]1C[C@@H](Cc2ccncc2)CN1; Trp(βS-Me,4-F) = C[C@@H](c1c[nH]c2cccc(F)c12)[C@H](N)C(=O)O; Bip(4'-COOH) = N[C@@H](Cc1ccc(-c2ccc(C(=O)O)cc2)cc1)C(=O)O; Ala(1-bicyclo(1.1.1)pentyl) = N[C@@H](CC12CC(C1)C2)C(=O)O; dPro(4R-Bzl(4-F)) = O=C(O)[C@H]1C[C@@H](Cc2ccc(F)cc2)CN1; Ala(pyrimidin-5-yl) = N[C@@H](Cc1cncnc1)C(=O)O; Phe(4-COOH) = N[C@@H](Cc1ccc(C(=O)O)cc1)C(=O)O; Pro(cis-4-F) = O=C(O)[C@@H]1C[C@H](F)CN1; 4Pal = N[C@@H](Cc1ccncc1)C(=O)O; Dab = NCC[C@H](N)C(=O)O; Dap = NC[C@H](N)C(=O)O; Aib = CC(C)(N)C(=O)O"}
{"biological_target": "Recombinant human IL-1β (BioLegend 579404) (human, UniProt P01584 117-269)", "experiment": "cell-based or functional assay", "units": {"MRC5 IC50": "pM"}}
{"binder": "B1", "MRC5 IC50": 54}
{"binder": "cyclo([Phe(4-(5-CO2H-2-pyrimidyl))][Ala(1-bicyclo(1.1.1)pentyl)][Phe(4-COOH)]G[Pro(cis-4-F)][Trp(βS-Me,4-F)][Aib]EW[Aib][4Pal]Q[Dab]G[dPro(4R-(4-pyridylmethyl))])", "note": "[SEQ ID NO: 86]", "MRC5 IC50": 75}
{"binder": "B2", "MRC5 IC50": 59}
{"binder": "B3", "MRC5 IC50": 28}
{"binder": "B4", "MRC5 IC50": 96}
{"binder": "B5", "MRC5 IC50": 54}
{"binder": "B6", "MRC5 IC50": 47}
{"binder": "B7", "MRC5 IC50": 87}
{"binder": "B8", "MRC5 IC50": 74}
{"binder": "cyclo([Phe(4-(4-Ac-piperazinyl))][Ala(1-bicyclo(1.1.1)pentyl)][Phe(4-COOH)]G[Pro(cis-4-F)][Trp(βS-Me,4-F)][Aib]EW[Aib][4Pal]Q[Dab]G[dPro(4R-Bzl(4-F))])", "note": "[SEQ ID NO: 90]", "MRC5 IC50": 64}
{"binder": "B9", "MRC5 IC50": 70}
{"binder": "B10", "MRC5 IC50": 45}
{"binder": "B11", "MRC5 IC50": 83}
